Data taken from patent publication US20200299408A1.
Numbering of substitutions follows the chain as printed. Numbers in names are those of the source.

B1: 14C7 (antibody, V domains shown)
VH: EVQLQQSGPELVKPGTSVKISCKASGFSFTNYYIHWMKQRPGQGLEWIGWIYPGSDNTKFNDKFKGKATLTADTSSTTAYMQLSSLTSEDSAVYYCARDSITNYYFDYWGQGTTLTVSS
VL: DVVMTQTPSSLAVSTGEKVTMTCKSSQSLLNIRTRKNCLAWYQQKPGQSPKLLIFWASTRYSGVPDRFTGSGSGTDFTLTIRSVQPEDLAVYYCTQSYTLRTFGGGTKLEIK
B2: muSP34 (antibody, V domains shown)
VH: EVQLVESGGGLVQPKGSLKLSCAASGFTFNTYAMNWVRQAPGKGLEWVARIRSKYNNYATYYADSVKDRFTISRDDSQSILYLQMNNLKTEDTAMYYCVRHGNFGNSYVSWFAYWGQGTLVTVSS
VL: QAVVTQESALTTSPGETVTLTCRSSTGAVTTSNYANWVQEKPDHLFTGLIGGTNKRAPGVPARFSGSLIGDKAALTITGAQTEDEAIYFCALWYSNLWVFGGGTKLTVL
B3: 18F12 (antibody, V domains shown)
VH: QVQLQQSGPELVKPGASVKISCKASGYSFTNYYMHWVKQRPGQGLEWIGWISPGSGSIKYNEKFKGKATLTADTSSSTAYMQLSSLTSEDSAVYYCARDGYSLYFFDFWGQGTTLTVSS
VL: DIVMTQSPSSLAVSAGEKVTMTCKSSQSLLNSRTRKNYLAWYQQKPGQSPKLLIYWASTRESGVPDRFTGSGSGTDFTLTISSVQAEDLAVYYCKQSFILRTFGGGTKLELK
B4: 27H5-1 (antibody, V domains shown)
VH: QVQLQQSGPELVKPGTSVKISCKTSGYSFINYYTHWVKQRPGQGLEWIGWIYPGNGNIKYNEKFMGKATLTADTSSTTAHMHLSSLVSEDSAVYYCARDSYGSYYFDYWGQGTTLTVSS
VL: B3 VL with A15V, T22S, D66V, K95T, L111I
B5: hu38E4.v1 Fab (Fab, V domains shown)
VH: EVQLVQSGAEVKKPGASVKVSCKASGFTFTSYYIHWVRQAPGQGLEWIGWIYPENDNTKYNEKFKDRVTITADTSTSTAYLELSSLRSEDTAVYYCARDGYSRYYFDYWGQGTLVTVSS
VL: DIVMTQSPDSLAVSLGERATINCKSSQSLLNSRTRKNYLAWYQQKPGQSPKLLIYWTSTRKSGVPDRFSGSGSGTDFTLTISSLQAEDVAVYYCKQSFILRTFGQGTKVEIK
B6: SP34v52 Fab (Fab, V domains shown)
VH: B2 VH with K15G, K19R, Q78K, S79N, I80T, N87S, K89R, T90A, M95V
VL: EAVVTQEPSLTVSPGGTVTLTCRSSTGAVTTSNYANWVQQKPGQAPRGLIGGTNKRAPWTPARFSGSLLGGKAALTLSGAQPEDEAEYYCALWYSNLWVFGGGTKLTVL
B7: 38E4v1 (bispecific antibody, part only; not given: anti-HER2 arm and constant regions, V domains shown, not shown: another chain or arm of the molecule; a dimerising Fc or GST)
VH: B5 VH
VL: B5 VL
B8: humanized 30A1: VH3 graft + A24V / K4 graft (antibody, V domains shown)
VH: EVQLVESGGGLVQPGGSLRLSCAVSGFSLTNYAIHWVRQAPGKGLEWVGVIWAGGNTKYNSALMSRFTISRDNSKNTLYLQMNSLRAEDTAVYYCAREDSSGYVALDYWGQGTLVTVSS
VL: B5 VL with N31S, S32G, S49P, T57A, K61E, F98Y, I99Y, R101L
B9: murine 30A1 (antibody, V domains shown)
VH: QVQLKESGPGLVAPSQSLSITCTVSGFSLTNYAIHWVRQPPGKGLDWLGVIWAGGNTKYNSALMSRLSFSKDNSKSQVFLEINSLQTDDTAMYYCAREDSSGYVALDYWGQGTSVTVSS
VL: B3 VL with D1N, T22S, N31S, S32G, F98Y, I99Y, R101L, G105A
B10: murine 13A3 (antibody, V domains shown)
VH: EVQLQQSGPELVKPGASVRISCKASGYTFTSYYIHWMKQRPGQGLEWIGWIYPGNVNTKYNEKFKGKATLTADNSSSTANMQLSSLTSEDSAVYFCARNHDYYFDYWGQGTTLTVSS
VL: B3 VL with M4L, T22S, F98Y, L111I

Target: CD3 antigen of Figures 3B and 3C (not named)
Assay: kinetic table of IgGs; method and antigen not stated

Kd [nM]	koff [s⁻¹]	kon [M⁻¹ s⁻¹]	Binder
0.228	3.79e-05	166000	B1
0.249	4e-05	161000	B2
0.119	1.59e-05	134000	B3
0.492	0.000115	234000	B4

Target: hCD3ε1-27-Fc
Assay: monovalent binding affinity (p-1384), method not stated on the sheet

hCD3ε1-27-Fc, sequence (fusion chain, as listed by the source): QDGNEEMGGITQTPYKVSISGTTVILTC

Kd [nM]	Binder
1	B5
11	B6

Target: human CD3 on T cells (human) (UniProt P07766)
Assay: Biacore, monovalent KD of the CD3 arm; form of the CD3 antigen not stated on the sheet [panel B]

human CD3 on T cells (human), sequence (P07766 22-207 limits assumed): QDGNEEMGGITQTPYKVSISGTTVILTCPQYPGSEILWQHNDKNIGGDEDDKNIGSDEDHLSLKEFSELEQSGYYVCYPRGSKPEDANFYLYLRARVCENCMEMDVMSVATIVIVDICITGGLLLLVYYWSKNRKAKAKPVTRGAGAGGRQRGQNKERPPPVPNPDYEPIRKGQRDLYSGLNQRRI

Kd [nM]	Binder
1.3	B7

Target: commercial CD3ε
Assay: binding affinity on commercial CD3ε (Creative Biomart CD3E-2194H); method not given

commercial CD3ε, sequence (P07766 22-126): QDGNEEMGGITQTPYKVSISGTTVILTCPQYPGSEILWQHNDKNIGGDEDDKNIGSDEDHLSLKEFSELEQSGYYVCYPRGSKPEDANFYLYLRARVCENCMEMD

Kd [nM]	Binder
1.7	B8
0.4	B9
0.7	B10
